Reference: patent US7514408 (ELAN PHARMACEUTICALS, dated 2009)
Numbered stars: 1 amine (or outer) side, 2 acyl side, 3 side chain; on linkers, the order of the positions; unused ones are H or OH. Square brackets hold non-standard residues; d marks the D form. Ends that are not written are not given here. Ahppa(3S,4S) = O=C(C[C@H](O)[C@H](Cc1ccccc1)N[*:1])[*:2]; ACHPA = O=C(C[C@H](O)[C@H](CC1CCCCC1)N[*:1])[*:2]; Sta = CC(C)C[C@H](N)[C@@H](O)CC(=O)O; Phg = N[C@H](C(=O)O)c1ccccc1; Nle = CCCC[C@H](N)C(=O)O; norSta = nor-statine

What follows are binders tested against T1, β-secretase (enzyme preparation not stated for the inhibitor assays) (human, UniProt P56817 46-501, limits assumed) (assay: cell-based or functional assay).
T1 sequence (P56817 46-501 limits assumed): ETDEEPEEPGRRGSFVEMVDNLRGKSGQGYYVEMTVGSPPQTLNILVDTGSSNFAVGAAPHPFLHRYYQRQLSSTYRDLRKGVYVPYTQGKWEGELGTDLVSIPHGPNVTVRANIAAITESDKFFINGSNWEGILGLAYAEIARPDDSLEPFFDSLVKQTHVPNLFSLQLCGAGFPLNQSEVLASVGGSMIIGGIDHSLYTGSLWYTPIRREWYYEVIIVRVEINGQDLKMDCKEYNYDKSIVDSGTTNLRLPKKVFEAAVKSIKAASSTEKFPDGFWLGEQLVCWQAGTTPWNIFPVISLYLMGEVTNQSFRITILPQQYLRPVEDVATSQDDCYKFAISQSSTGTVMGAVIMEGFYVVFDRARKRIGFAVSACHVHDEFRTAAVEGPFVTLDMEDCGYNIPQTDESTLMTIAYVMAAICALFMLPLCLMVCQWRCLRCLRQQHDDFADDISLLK

Row | Binder | IC50 Group, MBP C125 assay (Group II: =1<10 µM) [µM] | IC50 Group, MBP C125 assay (Group I: IC50 of <µm [sic]) [µM]
1 | H-VM[ACHPA]VAEF [heptamer peptide 7Q ((NH2)Val-Met-acha-Val-Ala-Glu-Phe)] | < 10 | –
2 | Ac-VM[Ahppa(3S,4S)]VAEF [heptamer peptide 7O (Ac-Val-Met-pheSta-Val-Ala-Glu-Phe)] | – | < 1
3 | Ac-VM[Sta]VAEF [heptamer peptide 7B (Ac-Val-Met-Sta-Val-Ala-Glu-Phe)] | – | < 1
4 | Ac-VN[Sta]VAEF [heptamer peptide 7I (Ac-Val-Asn-Sta-Val-Ala-Glu-Phe)] | < 10 | –
5 | Ac-VM[norSta]VAEF [heptamer peptide 7P (Ac-Val-Met-norSta-Val-Ala-Glu-Phe)] | < 10 | –
6 | Ac-VF[Sta]VAEF [heptamer peptide 7J (Ac-Val-Phe-Sta-Val-Ala-Glu-Phe)] | < 10 | –
7 | Ac-V[Nle][Sta]VAEF [heptamer peptide 7H (Ac-Val-nLeu-Sta-Val-Ala-Glu-Phe)] | – | < 1
8 | Ac-V[Phg][Sta]VAEF [heptamer peptide 7G (Ac-Val-Phg-Sta-Val-Ala-Glu-Phe)] | – | < 1

Target: T1, β-secretase (enzyme preparation not …)
Assay: cell-based or functional assay
Remark: another data set of the same source

Row | Binder | inhibitor potency relative to the valine substitution alone [times]
9 | KTEEISEVN[Sta]VAEF [P10-P4′staD→V] | ~100
